{"source": "paper PMC11295148", "proteins": {"B1": {"name": "AlAzoR (Anaerotignum lactatifermentans DSM 14214) (protein)", "chain": "MKKVLFVNCCIRREGSRTQKLADHFLEGLRKKEGYEIEELCLMDESLSYFTDGFFEQRERLLADKQFDHPRFRYAHQFAEADKIVIAAPFWDLSFPALLKVYIENLCVEGITFGCNETGCFGTCKADQLIYLTTRGGFYNDNPMEMGSRYIWAMCDFFGIPRYDCVAGDGLDTGVRPVEEILEDAKAEIDRLLAEF"}}, "experiment_in_all_cases": "purified protein", "key": {"[1]": {"substrate": "O=C(O)c1cc(/N=N/c2ccc(S(=O)(=O)Nc3ccccn3)cc2)ccc1O", "conditions": "40 μM NADH, 50 mM MOPS pH 7.2, 22 °C"}, "[2]": {"substrate": "CCN(CC)c1ccc(N=Nc2ccccc2C(=O)O)cc1", "type": "biochemical, Anaerotignum lactatifermentans", "conditions": "400 μM NADH, 50 mM MOPS pH 7.2, 22 °C"}, "[3]": {"substrate": "CN(C)c1ccc(N=Nc2ccccc2C(=O)O)cc1", "type": "biochemical, Anaerotignum lactatifermentans", "conditions": "400 μM NADH, 50 mM MOPS pH 7.2, 22 °C"}, "[4]": {"substrate": "Nc1ccc(N=Nc2ccccc2)c(N)n1", "type": "biochemical, Anaerotignum lactatifermentans", "conditions": "400 μM NADH, 50 mM MOPS pH 7.2, 22 °C"}}}
{"protein": "B1", "values": [{"measurement": "Km", "setting": "[1]", "result": "8 ± 1", "unit": "µM"}, {"measurement": "kcat", "setting": "[1]", "result": 0.05, "unit": "s⁻¹"}, {"measurement": "kcat/Km", "setting": "[1]", "result": 6100, "unit": "M⁻¹ s⁻¹"}, {"measurement": "Km", "setting": "[2]", "result": "30. ± 2", "unit": "μM"}, {"measurement": "kcat", "setting": "[2]", "result": "0.78 ± 0.02", "unit": "s⁻¹"}, {"measurement": "kcat/Km", "setting": "[2]", "result": "26000 ± 2000", "unit": "M⁻¹ s⁻¹"}, {"measurement": "Km", "setting": "[3]", "result": "17 ± 3", "unit": "µM"}, {"measurement": "kcat", "setting": "[3]", "result": "0.49 ± 0.03", "unit": "s⁻¹"}, {"measurement": "kcat/Km", "setting": "[3]", "result": "28000 ± 4000", "unit": "M⁻¹ s⁻¹"}, {"measurement": "Km", "setting": "[4]", "result": "23 ± 3", "unit": "µM"}, {"measurement": "kcat", "setting": "[4]", "result": "0.138 ± 0.008", "unit": "s⁻¹"}, {"measurement": "kcat/Km", "setting": "[4]", "result": "6000 ± 700", "unit": "M⁻¹ s⁻¹"}]}
